# Experimental data as given in paper PMC10397247.
# T1: Core_IIII-es_KEKE
# T1 chain: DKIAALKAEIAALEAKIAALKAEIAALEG
# T2: Core_ININ-es_EEEE
# T2 chain: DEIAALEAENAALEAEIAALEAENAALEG
# T3: 4H3606-AA
# T3 chain: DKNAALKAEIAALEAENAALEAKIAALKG
# T4: 4H3865-AA
# T4 chain: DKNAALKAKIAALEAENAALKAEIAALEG
# T5: 4H3378-AA
# T5 chain: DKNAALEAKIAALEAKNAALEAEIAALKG
# T6: 4H3056-AA
# T6 chain: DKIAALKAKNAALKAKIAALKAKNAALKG
# T7: 4H32-AA
# T7 chain: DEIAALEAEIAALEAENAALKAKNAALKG
# T8: 4H3590-AA
# T8 chain: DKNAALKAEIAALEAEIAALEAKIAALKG
# T9: 4H3133-AA
# T9 chain: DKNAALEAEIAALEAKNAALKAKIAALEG
# T10: 4H3162-AA
# T10 chain: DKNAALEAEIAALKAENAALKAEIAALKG
# T11: 4H3413-AA
# T11 chain: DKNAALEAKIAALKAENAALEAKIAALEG
# T12: 4H697-AA
# T12 chain: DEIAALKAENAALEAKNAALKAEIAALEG
# T13: 4H3588-AA
# T13 chain: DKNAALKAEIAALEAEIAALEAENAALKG
# T14: 4H3697-AA
# T14 chain: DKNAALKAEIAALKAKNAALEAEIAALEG
# T15: 4H384-AA
# T15 chain: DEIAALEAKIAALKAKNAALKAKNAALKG
# T16: 4H982-AA
# T16 chain: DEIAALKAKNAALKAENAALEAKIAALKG
# T17: 4H3631-AA
# T17 chain: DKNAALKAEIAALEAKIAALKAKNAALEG
# T18: 4H340-AA
# T18 chain: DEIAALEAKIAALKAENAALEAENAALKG
# T19: 4H3718-AA
# T19 chain: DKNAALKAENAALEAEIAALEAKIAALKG
# T20: Core_INNN-es_KEEK
# T20 chain: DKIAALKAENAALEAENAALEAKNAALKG
# How the values were obtained:
# Test in all cases: two-hybrid library CCmax;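 also: natural log of median RNA to DNA barcode read ratio; higher means stronger binding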
# Core_IIII-es_KEKE = target: T1, Core_IIII-es_KEKE; conditions: mean of both orientations
# Core_ININ-es_EEEE = target: T2, Core_ININ-es_EEEE; conditions: mean of both orientations
# 4H3606-AA = target: T3, 4H3606-AA; conditions: mean of both orientations
# 4H3865-AA = target: T4, 4H3865-AA; conditions: mean of both orientations
# 4H3378-AA = target: T5, 4H3378-AA; conditions: mean of both orientations
# 4H3056-AA = target: T6, 4H3056-AA
# 4H32-AA = target: T7, 4H32-AA; conditions: mean of both orientations
# 4H3590-AA = target: T8, 4H3590-AA
# 4H3133-AA = target: T9, 4H3133-AA; conditions: mean of both orientations
# 4H3162-AA = target: T10, 4H3162-AA; conditions: mean of both orientations
# 4H3413-AA = target: T11, 4H3413-AA; conditions: mean of both orientations
# 4H697-AA = target: T12, 4H697-AA; conditions: mean of both orientations
# 4H3588-AA = target: T13, 4H3588-AA; conditions: mean of both orientations
# 4H3697-AA = target: T14, 4H3697-AA; conditions: mean of both orientations
# 4H384-AA = target: T15, 4H384-AA; conditions: mean of both orientations
# 4H982-AA = target: T16, 4H982-AA; conditions: mean of both orientations
# 4H3631-AA = target: T17, 4H3631-AA; conditions: mean of both orientations
# 4H340-AA = target: T18, 4H340-AA; conditions: mean of both orientations
# 4H3718-AA = target: T19, 4H3718-AA; conditions: mean of both orientations
# Core_INNN-es_KEEK = target: T20, Core_INNN-es_KEEK; conditions: mean of both orientations
binder,measurement,setting,value
DEIAALEAKIAALKAEIAALEAKIAALKG [Core_IIII-es_EKEK],interaction score,Core_IIII-es_KEKE,1.11
DKIAALKAKNAALKAKIAALKAKNAALKG [4H3056-AA],interaction score,Core_ININ-es_EEEE,1.52
same,interaction score,4H3606-AA,0.58
same,interaction score,4H3865-AA,0.0241
same,interaction score,4H3378-AA,-1.09
same,interaction score,4H3056-AA,-1.79
same,interaction score,4H32-AA,-1.08
same,interaction score,4H3590-AA,-0.167
same,interaction score,4H3133-AA,-0.786
same,interaction score,4H3162-AA,-1.58
same,interaction score,4H3413-AA,-0.103
same,interaction score,4H697-AA,-1.44
same,interaction score,4H3588-AA,-0.439
same,interaction score,4H3697-AA,-0.53
same,interaction score,4H384-AA,-1.93
same,interaction score,4H982-AA,-1.65
same,interaction score,4H3631-AA,-1.74
same,interaction score,4H340-AA,-1.52
same,interaction score,4H3718-AA,-0.69
DEIAALEAKNAALKAKNAALKAENAALEG [Core_INNN-es_EKKE],interaction score,Core_INNN-es_KEEK,1.91
